Data: PMC12481158

Biological target: CHLOROPLAST UNUSUAL POSITIONING 1 with C-terminal GFP (CHUP1:GFP) (N. benthamiana)
Experiment: FRET or BRET; nonfitting FLIM-FRET (average-arrival-time FRET) in planta; CHUP1:GFP donor, KAC1:RFP acceptor; mean weighted photon arrival time on chloroplasts juxtaposed to the PM

- decrease in donor lifetime against CHUP1:GFP alone: 143 ps
- donor (CHUP1:GFP) fluorescence lifetime with KAC1:RFP: 2.27 ns
Substance: KINESIN-LIKE PROTEIN FOR ACTIN-BASED CHLOROPLAST MOVEMENT 1 with C-terminal RFP (KAC1:RFP) (natural protein)
